Results from paper PMC8823246 (Journal for Immunotherapy of Cancer, 2022).

Target: T1, recombinant human VISTA-Fc protein (human, UniProt Q9H7M9 33-194)
T1 sequence (looked up): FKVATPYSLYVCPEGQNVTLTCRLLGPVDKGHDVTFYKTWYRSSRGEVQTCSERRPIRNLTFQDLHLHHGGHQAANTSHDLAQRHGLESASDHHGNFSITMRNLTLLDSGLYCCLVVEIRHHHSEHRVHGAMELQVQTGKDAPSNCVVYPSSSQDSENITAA
Assay: ELISA

- EC50: 24 nM
B1: recombinant human VSIG3-Fc (Fc fusion, UniProt Q5DX21 23-241, looked up)
chain: LEVSESPGSIQVARGQPAVLPCTFTTSAALINLNVIWMVTPLSNANQPEQVILYQGGQMFDGAPRFHGRVGFTGTMPATNVSIFINNTQLSDTGTYQCLVNNLPDIGGRNIGVTGLTVLVPPSAPHCQIQGSQDIGSDVILLCSSEEGIPRPTYLWEKLDNTLKLPPTATQDQVQGTVTIRNISALSSGLYQCVASNAIGTSTCLLDLQVISPQPRNIG
modifications: biotin (biotinylated using Invitrogen kit #21455) in the inhibition assay
